Measurements taken from the nanobody polyreactivity screen of Harvey et al. (2022).

Test: yeast display, Sf9 membrane polyspecificity reagent, FACS + sequencing; frameworks hold sequencing errors
How it was run: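 Galactose induction of a Saccharomyces cerevisiae BJ5465 synthetic nanobody display library ran 36–48 hours. The cells were then stained for 1 hour at 4 °C with 10% biotinylated, detergent-solubilized Sf9 membrane reagent, pulled down on streptavidin microbeads and FACS-sorted into low and high (top ~1%) gates on expression and reagent-binding fluorescence. Labels for polyreactivity follow the gate of origin.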

| Sequence | polyreactivity (PSR sort gate) |
| --- | --- |
| QVQHVESGGGLGQARRSLRLSCAASGTIINANAMGWDRQAPGKERELVASISGGAGSTYYADSVKGRFTISRDNAKNTVYLQMNSLKPEDTAVYYCAADRPYRYDYWGQGTQVTVSS | low polyreactivity |
| QVQLVESGGGLVQAGGSLRLSCAASGSIFSYYGMGWYRQAPGKERELVAAITDGDGTNYADSVKGRFTISRDNAKNTVYLQMNSLKPEDTAVYYCARDDRDIRGESGREGFLYDYWGQGTQVTVSS | low polyreactivity |
| QVQLVESGGGLVQEGGSLRLSCAASGSIFGVYTMGWYRPEPGKERELVAAINWGGTSTYYADSVKGRFTISRDNAKNTVYLQMNSLKPEDTAVYYCNAERRRRYPYNYWGHGTQVTVSS | high polyreactivity |
| QVQLVESGGGLVQAGGSLRLSCAASGSTIYVKAMGWYRQAPGKEREFVAAITWNSGSTYYADSVKGRFTISRDNAKKTVYLQINSLKPEDTAVYYCAAVLSVLVYGYVYWGQGTQVTVSS | low polyreactivity |
| QVQLVESGGGVVQAGGSLRLSCAASGRIFIWYDMGWYRQAPGKERELVAAITQSDDITYYADSVKGRFTISRDNAKNTVYLQMNSLKPEDTAVYYCAARVFETSTPYGYWGQGTQVTVSS | low polyreactivity |
| QVQLVESGGGLVQAGGSLRLSSAASGSIFQDNAMGWNRQAPGKERELVAAISVSGGSTYYADSVKGRFTISRDNAKNTVYLQMNSLKPEDTAVYYCAARARGYAWTYDYWGQGTQVTVSS | high polyreactivity |
| QVQLVESGGGLVQAGGSLRLSCAASGSIFRSNAMGWYRQAPGKEREFVAAITSRSSSTYYADSVKGRFTISRDNAKNTVYLQMNSLKPEDTAVYYCAARYQHYFTGGDYWGQGTQVTVSS | low polyreactivity |
| QVHLVESGGGLVQAGGSLRLTCAASGSTFASNVMGWYRQAPGKERELVAAISRRGTRTNYADSVKGRFTISLDNAKNTVYLQMKSLKPEDTAVYYCNTASGTNVVYEFGYWGQGTQVTVSS | high polyreactivity |
| QVQLVESGGGLVQAGGSLRLSCAASGRTLGTYAMGWYRQAPGKERELVAAITSGGSTYYADSVKGRFTISRDNAKNTVYLQMNSLKPEDTAVYYRATYSYYYWGQGTQVTVSS | low polyreactivity |
| QVQLVESGGGLVQAGGSLRLSCAASGLIFRYYAMGWYRQAPGKERELVAAISKSGGRTYYADSVKGRFTISRDNAKNTVYLQMNSLKPEDTAVYYCATGVRGYVGWSSALYYEYDYWGQGTQVTVSS | high polyreactivity |
| QVQLVESGGGLVQAGGSLRLRCAASGLTFTYYAMGWYRQAPGKERELVAAISSGGNTNYADSVKGRFTISRDNAKNTVYLQMNSLKPEDTGVYYCAADDYYDHRVIYRSWYDYWGQGTQVTVSS | low polyreactivity |
| QVQLVESGAGLVQAGGSLRLSCAASGSIFVYNDMGWYRQAPGKERELVAAITSSGGSTYYADSVKGRFTISRDNAKKTVYLQMNSLKPEDTAVYYCNVWDRPPTGYDYWGQGTQVTVSS | low polyreactivity |
| QVQLVESGGGLVQAGGSLRLSCAASGRIFNDYAMGWYRQAPGKERELVATYADSVKGRFTISRDNAKNTVYLQMNSLKPEDTAVYYCAADFPSFPDFRPEYDYWGQGTQVTVSS | low polyreactivity |
| QVQLVESGGGLVQAGGSLRLSCAASGSTFYVYAMGWYRQAPGKERELVAAISSSGARTYYADSVKGRFTISRDNAKNTVYLQMNSLKPEDTAVYYCAARRYYKFYYWGQGTQVTVSS | high polyreactivity |
| QVQLVESAGGLVQAGGSLRLSCAASGYIFWENAMGWYRQAPGKERELVAAITVSGGGTYYADSVKGRFTISRDNAKNTVYLQMNSLKPEDTAVYYCAADEDNPWLWFYYWGHGTQVTVSS | low polyreactivity |
| QVQLVESGGGLVQAGGSLRLSCAASGSIFYNAMGWYRQAPGKERELVAAISYRGGRTYYADSVKGRFTISRDNAKNTVYLQMNSLKPEDTAVYYCAADSTVGRYPYDYWGQGTQVTVSS | high polyreactivity |
| QVQLVESGGGLVQAGGSLRLSCAASGRTFYANDMGWYRQAPGKERELVAAISSSVTSTHYADSVKGRFTISRDNAKNTVYLQMNSLKPEDTAVYYCNKDPIREVPPPGPSEMDYWGQGTQVTVSS | low polyreactivity |
| QVQLEESGGGLVQAGGSLRLSCAASGRIFIRNAMGWYRQAPGKERELVAAISYSGGSTYYADSVKGRFTISRDNAKNTVYLQMNSLKPEDTAVYYCAAGSIRGTSFYYWGQGTQVTVSS | high polyreactivity |
| QVQLVESGGGLVQAGGRLRLSCAASGSIFGGNDMGWYRQPPGKERELVAAITSSGGSTYYADSVKGRFTISRDNAKNTVYLQMYSLKPEDTAVYYCNADYYGPYRDYGYWGQGTQVTVSS | low polyreactivity |
| QVQHVESGGGLVQAGGSLRLSCAASGSTFGRYAMGWYRQAPGKERELVARISWGGGSTYYADSVKGRFTISRDNAKNTVYLQMNSLKPEDSAVYYCATRVYRSAVSYDYWGQGTQVTVSS | high polyreactivity |

| Sequence | polyreactivity (PSR sort gate) |
| --- | --- |
| EEELVESGGGLVQAGCSLRLSCAATGSTIIWNAMGWYIQAPGKERELVAAITRSGGRTYYADSVKGRFTISRDNAKNTVYLLMNSLIPEDTAVYYCAAVIWGYYYGGKYVYYYPYGYWGQGTQVTVSS | high polyreactivity |
| QVQLVESGRGLVQAGGSLRLSCAASGSTFNINAMGWYRQAPGKERELVAAISWSGDITYYADSVKGRFTISRDNAKNTVYLQMNSLKPEDTAVYYCNTDDPGNYWYAEYDYWGQGTQVTVSS | low polyreactivity |
| QVQLEESGGGIVQAGGSLRLSCAASGSTFRKYAMRWYRQAPGKERDFVAAITWSTGTTYYADSVKGRFTISRDNAKNTVYLQMNSLKPEDTAVYFCAADSQPPHELYESIEHESWGQGTQVTVSS | low polyreactivity |
| QVQLVESGGGLVQARGSLRLSCASSGSIFGWNAMGGYRQAPGKERELVAAISSVGSTYYADSVKGRFTISRDNAKNTVYLQMNSLKPEDTAVYYCAAPVIQITDVWYDAETYPDYDYWGEGTQVTVSS | low polyreactivity |
| QVQLVESGGGLVQAGGSLRLSCAASGRIFRYYAMGWYRQAPGKERELVADIWSDGSTYYADSVKGRFTISRDNAKNTVYLQMNSLKPEDTAVYYCNAARTYYWYSAKFDYWGQGTQVTVSS | high polyreactivity |
| QVQLVESGGGLVQAGGSLRLSCSASGLTFYSYTKGWYRQAPGKERELVAAISYSGGNTYYADSVKGRFTISRDNAKNTVYLQMNSLKQEDTAVYYCNAYFRWYWLIEYDYWGQGTQVTVSS | high polyreactivity |
| QVQLVESGGGLVQAGGSLRLSCAASGSIFEGNGMGWYRQAPGKERELVAAITFRSGSTYYADSVKGRFTISRDNAKNTVYLQMNSLKPEDTAVYYCAADEYYEVSAYDYWGQGTQVTVSS | low polyreactivity |
| QVQLVESGGGLVQAGGSLRLSCAASGSTFGYYAMGWYRQAPGKEMELVAAITSGASTNYADSVKGRFTISRDNAKNTVYLQMNSLKPEDTAVYYCAADFLSPAYRPSWYRFDYWGQGTQVTVSS | low polyreactivity |
| QLQLVESGGGLVQAGGSLRLSSAASGIIRVNAMGWNIQAPGKQRELVATITNVGSTNYADSVKGRFTISRDNAKNTVYLQMNSLKPEDTAVYYCAAEYDGPFYSFYPEQRYYWGQGTQVTVSS | low polyreactivity |
| QVQLQEGGGGLVQAGGSLRLSCAASGYISYGDDMGWYRQAPGEERELVASIGLDATTNYADSVKGRFTISRDNAKITVYLQMNSLKPEDTAVYYCAADVGSGVLCGYWGQGTQMTVSS | high polyreactivity |
| QVQLEESGGGLVKARGSLRLSCAASGRTFNFYYMGWYRQAPGKERELVAAISSSGGSTYYADSVKGRFTISRDTAKYTVYLQMISLIPEDTAVYYCAKGPLYSLCFQHDAPYRYGYWGQATQVTVSS | low polyreactivity |
| QVQLVESGGGLVQAGGSLRLSCAASGSIYYYTMGWYRQAPGKERELVAAISRSGTRTYYADSVKGRFTISRDNAMYTVYLQMNSLKPEDTAGYYCAARILPPGDNVDDDYWGQGTQVTVSS | high polyreactivity |
| QVQLVESGGGLVQAGGSLRLSCAASGSTFSIYAMGWYRQAPGKERELVAAISFSDDSTYYADSVKGRFTISRDNAKNTVYLQMNSLKPEDTAVYYCAAEGYWGQPFDYDGALEYWGQGTQVTVSS | high polyreactivity |
| QVQLVESGGGLVQAGGSLRLSCAASGRTFDGNAMGWYRQAPGKERELVAAISQGGGSTYYADSVKGRFTISRDNAKNTVYLQMNSLKPEDTAVYYCNAVGYTPRKPSKFDYWGQGTQVTVSS | low polyreactivity |
| QVQLVESGGGLVQEGGSLRLSCAASGYIFYEYAMGWYRQAPGKERELVAAISYSGGSTYYADSVKGRFTISRDNAKNTVYLQMNSLKPEDTAVYYCAAVGSVRYREGYDYWGQGSQVTVSS | high polyreactivity |
| QVQLVESGGGLVQAGGSLRLSCAASGSTFAKYVMGWYRQAHGKERELVAAISRRGSSTYYADSVKGRFTISRDNAKNTVYLQMNSLKPEDTAVYYCAARFRYSGFEGMDYWGQGTQVTVSS | high polyreactivity |
| QVQLVESGGGLVQAGGSLRLSCAASGRTFRLYAMGWYRQAPGKERELVAAISRRGGSTYYADSVKGRFTISRDNAKNTVYLQMNSLKPEDTAVYYCAKGLGSGQEIYGYDYWGQGTQVTVSS | high polyreactivity |
| QVQLVESGGGLVQAGGSLRLSCASSGFTFWTYDMGWYRQAPGKERELVAAIDSGGSTYYADSVKGRFTISRDNAKNTVYLQMNSLKPEDTAVYYCNAGPSVTSGYDYDYWGQGTQVTVSS | low polyreactivity |
| QVQLVESGGGLVQAGGSLRLSCAASGRIFDLYAMGWYRQAPGKERELVASITTIGGRTYYADSVKGRFTISRDNAKNTVYLQMNSLKPEDTAVYYCAKSRWLYTTRSGYDYWGQGTQVTVSS | high polyreactivity |
| QVQLVESGGGLVQAGGSLRLSCAASGRTFWFYAMGWYRQAPGKERELVATINYRGGTTYYADSVKGRFTISRDNAKNTVYLQMNSLKPEDTAVYYCAVRPTRTFIYVYWGQGTEVTVSS | high polyreactivity |
